Broadly, the EC50 is the concentration at which the effect is half-maximal. A high value points to a less potent agent.

These results are taken from patent US20170334973A1 (INTEGRATED BIOTHERAPEUTICS, published 2017).

Substitutions are numbered along the chain they refer to.

First the molecules themselves.
T1: MARV (Musoke strain) GP (Marburg virus (MARV), Musoke strain, UniProt P35253 19-648)
T1 sequence: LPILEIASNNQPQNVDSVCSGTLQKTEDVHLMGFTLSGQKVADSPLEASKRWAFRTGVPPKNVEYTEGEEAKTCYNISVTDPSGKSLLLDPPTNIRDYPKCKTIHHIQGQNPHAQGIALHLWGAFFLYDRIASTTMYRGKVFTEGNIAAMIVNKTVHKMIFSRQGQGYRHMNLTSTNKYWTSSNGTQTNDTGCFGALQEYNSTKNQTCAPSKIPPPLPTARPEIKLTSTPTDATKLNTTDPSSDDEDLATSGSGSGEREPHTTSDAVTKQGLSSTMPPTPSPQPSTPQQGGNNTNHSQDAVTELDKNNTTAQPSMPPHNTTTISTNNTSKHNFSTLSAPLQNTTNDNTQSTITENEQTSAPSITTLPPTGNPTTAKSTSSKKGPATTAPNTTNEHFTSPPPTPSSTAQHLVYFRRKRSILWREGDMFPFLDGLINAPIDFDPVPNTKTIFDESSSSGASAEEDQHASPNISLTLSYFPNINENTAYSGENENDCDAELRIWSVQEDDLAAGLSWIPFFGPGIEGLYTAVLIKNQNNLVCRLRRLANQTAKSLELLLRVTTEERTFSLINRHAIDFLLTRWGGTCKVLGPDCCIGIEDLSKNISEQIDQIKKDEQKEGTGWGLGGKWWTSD

T2: EBOV VLP (Ebola virus (EBOV), UniProt Q05320 33-676)
T2 sequence: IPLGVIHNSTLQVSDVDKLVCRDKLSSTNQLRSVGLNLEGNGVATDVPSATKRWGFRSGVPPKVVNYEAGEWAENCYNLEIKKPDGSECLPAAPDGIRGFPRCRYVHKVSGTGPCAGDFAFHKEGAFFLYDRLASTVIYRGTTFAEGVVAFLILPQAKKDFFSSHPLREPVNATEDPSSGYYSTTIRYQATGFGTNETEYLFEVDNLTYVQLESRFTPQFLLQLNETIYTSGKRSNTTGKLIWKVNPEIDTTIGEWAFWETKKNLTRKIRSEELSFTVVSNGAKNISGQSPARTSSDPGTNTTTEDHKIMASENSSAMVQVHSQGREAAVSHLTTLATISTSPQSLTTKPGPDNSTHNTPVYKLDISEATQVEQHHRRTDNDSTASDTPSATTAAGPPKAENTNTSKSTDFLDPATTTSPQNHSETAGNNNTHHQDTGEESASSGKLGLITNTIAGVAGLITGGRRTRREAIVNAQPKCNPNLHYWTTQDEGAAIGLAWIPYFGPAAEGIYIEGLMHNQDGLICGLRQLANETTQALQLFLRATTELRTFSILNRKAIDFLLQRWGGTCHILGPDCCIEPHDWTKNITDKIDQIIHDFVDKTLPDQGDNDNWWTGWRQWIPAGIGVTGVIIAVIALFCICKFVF

T3: SUDV VLP (Sudan virus (SUDV), UniProt Q66814 33-676)
T3 sequence: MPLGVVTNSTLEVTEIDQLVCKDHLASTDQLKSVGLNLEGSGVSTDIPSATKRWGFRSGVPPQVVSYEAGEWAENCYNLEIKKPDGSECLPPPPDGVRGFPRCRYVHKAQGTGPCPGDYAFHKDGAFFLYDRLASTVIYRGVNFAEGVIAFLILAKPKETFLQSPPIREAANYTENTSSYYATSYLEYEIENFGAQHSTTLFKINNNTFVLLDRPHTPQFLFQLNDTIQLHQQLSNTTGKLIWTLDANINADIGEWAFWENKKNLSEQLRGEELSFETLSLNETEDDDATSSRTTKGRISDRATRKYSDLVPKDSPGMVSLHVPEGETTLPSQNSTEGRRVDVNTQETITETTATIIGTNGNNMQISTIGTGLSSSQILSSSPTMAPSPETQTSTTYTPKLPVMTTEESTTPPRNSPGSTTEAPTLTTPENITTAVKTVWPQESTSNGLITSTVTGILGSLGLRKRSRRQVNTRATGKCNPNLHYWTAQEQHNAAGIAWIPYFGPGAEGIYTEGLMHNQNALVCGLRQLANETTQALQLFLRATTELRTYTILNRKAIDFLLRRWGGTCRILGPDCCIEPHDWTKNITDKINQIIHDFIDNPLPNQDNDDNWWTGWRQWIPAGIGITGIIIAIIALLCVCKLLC

T4: MARV VLP (Marburg virus (MARV), UniProt P35253 19-681)
T4 sequence: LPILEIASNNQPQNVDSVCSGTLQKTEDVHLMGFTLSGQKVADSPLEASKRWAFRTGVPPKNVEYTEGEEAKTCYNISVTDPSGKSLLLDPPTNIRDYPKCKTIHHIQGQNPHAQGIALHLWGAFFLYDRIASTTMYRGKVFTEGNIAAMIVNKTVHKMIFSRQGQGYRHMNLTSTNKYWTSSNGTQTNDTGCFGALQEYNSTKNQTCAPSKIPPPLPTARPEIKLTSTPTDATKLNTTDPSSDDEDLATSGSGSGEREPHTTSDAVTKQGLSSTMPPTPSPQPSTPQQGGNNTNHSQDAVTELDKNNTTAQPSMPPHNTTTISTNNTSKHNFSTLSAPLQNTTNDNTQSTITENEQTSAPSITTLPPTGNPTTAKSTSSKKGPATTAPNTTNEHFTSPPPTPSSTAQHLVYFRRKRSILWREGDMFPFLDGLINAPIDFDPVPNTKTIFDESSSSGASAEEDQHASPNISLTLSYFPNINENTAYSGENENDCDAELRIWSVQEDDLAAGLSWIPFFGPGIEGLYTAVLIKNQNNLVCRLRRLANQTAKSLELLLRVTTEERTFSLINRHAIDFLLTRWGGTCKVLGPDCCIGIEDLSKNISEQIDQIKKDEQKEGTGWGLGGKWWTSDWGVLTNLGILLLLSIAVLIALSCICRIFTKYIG

B1: FVM01P (antibody, V domains shown)
VH: QVQLQESGPGLVKPSETLSLTCTVSGASISNYRWNWIRQPPGKGLEWIGEINGYSGSTNYNPSLKSRVTISKDASKNQFSLKLTSVTAADTAVYYCPIIGGFTLEWFDVWGPGVLVTVSS
VL: DVVLTQSPSSLSASVGDRVTITCRASQGIRNYLNWYQQKPRKAPKLLIYAASSLQSGVPSRFSGSGSGTEFTLTISSLQAEDFATYYCLQGYRTPFTFGPGTKLDIKR
B2: FVM20 (antibody, V domains shown)
VH: EVQLVESGAEVKRPGESLTISCKTSGYSFTGSWISWVRQMPGKGLEWLGSIYPGDSETKYNPSFQGHVTISADKSVTTTYLKWSSLKASDTATYYCVKGSETWGQGVLVTVSS
VL: NFMLTQSASLSASPGASASLTCTFSGGINVAGYHIFWYQQNPGSPPRYLLRYKSDSEKDQGSGVPSRFSGSKDASANTGILRISGLQSEDEADYYCAIGHSSGWIFGGGTRLTVL
B3: FVM13 (antibody, V domains shown)
VH: EVQLVQSGAEVKRPGESLKISCKTSGYTFTSSWISWVRQMPGKGLEWLGSIYPGDSDTRYNPSFQGHVTISADTSIITTHLQWSSLKASDTATYYCVKGSETWGQGVLVTVSS
VL: B2 VL with N1K, F2P, S7P, A8T, H34N, F36L, N41K, P42A, E57T
B4: FVM25 (antibody, V domains shown)
VH: EVQLVHSGAEVKRPGESLTISCKTSGYTFTDYWIAWVRQMPGKGLEWMASIYPDDSDTRYNPSFQGHVTISADKSISTTYLQWSSLRASDTATYYCVKGSETWGQGVLVTVSS
VL: QLVLTQPASLSASPGTSASLTCTFSGGINVAGYNILWYQQKPGSPPRFLLRYKSDSDNVQGSGVPSHFSGSKDASTNTGILRISGLQSEDEADYYCAIGHSSGWVFGGGTRLTVL
B5: FVM28 (antibody, V domains shown)
VH: EVQLVQSGAEVKRPGESLKISCQTSGYRFTSSWISWVRQMPGKGLEWMGAIDPSDSETRYSPSFQGQVTISADKSISTAYLKWSSLKASDTATYYCVKGSETWGQGVLVTVSS
VL: QAALTQPASLSASPGASASLTCTFSGGINVAGYHILWYQQKPGSPPRYLLRYKSDSEKDQGSGVPSRFSGSKDASANRGILRISGLQSEDEADYYCAIGHSSSGWVFGGGTRLTVL
B6: FVM32 (antibody, V domains shown)
VH: QVQLVQSGAEVKRPGESLRISCKTSGYSFTDSWVAWVRQMPGKGLEWLGSIYPGDSDTRYSPSFQGQVTISADKSITTAYLKWSSLKASDTATYYCVKGSETWGQGVLVTVSS
VL: QPVLTQPASLSASPGASASLTCTFNGGITVPGYDILWYQQKSGSPPRYLLRYKSDSTKDQGSGVPSRFSGSKDASTNTGILRISGLQSEDEADYYCAIGHSSGWIFGGGTRLTVL
B7: FVM24 (antibody, V domains shown)
VH: EVQLVQSGAEVKRPGESLKISCKTSGYSFTDSWVAWVRQMPGKGLEWMGSIYPGDFQTRYNPSFQGHVTLSADKSISTTYLQWSSLKASDTATYYCVKGSETWGPGVLVTVSS
VL: SSGLTQPASLSASPGASASLTCTFSGGINVAGYNILWYQQKAGSPPRYLLRYKSDSTKDQGSGVPSRFSGSKDVSANTGILRISGLQSDDEADYYCAIGHSSGWIFGGGTRLTVL
B8: FVM21 (antibody, V domains shown)
VH: EVQLVESGAEVKRPGESLTISCKTSGYSFTDSWVAWVRQMPGKGLEWLGSIYPGDSETKYNPSFQGHVTISADKSISTTYLQWSSLRASDTATYYCVKGADDWGPGLLVTVSS
VL: B7 VL with G3E, T57D, D59G, V74A, D89E
B9: FVM23 (antibody, V domains shown)
VH: B2 VH with E1Q, E6Q, L48M, E57D, K59T, V76I, T77S, T79A, K82Q, S84T
VL: B7 VL with S2Y, G3E, V74A, D89E, W104L, G108A
B10: FVM18 (antibody, V domains shown)
VH: B2 VH with E1Q, E6Q, T19K, G31N, S32I
VL: B5 VL with Q1N, A2F, A3M
B11: FVM17 (antibody, V domains shown)
VH: B2 VH with E6Q, G31D, L48M, E57D, T58A, K59R, V76I, T77S
VL: B4 VL with L2A, L4V, T76A, V105I
B12: FVM19 (antibody, V domains shown)
VH: B2 VH with E1Q, E6Q, G31D, I34V, S35A, E57D
VL: B2 VL with N1K, F2P, S7P, N41K, E57D, D59G, W104L, I105L
B13: FVM03 (antibody, V domains shown)
VH: QVQLQESGPVLVKPSETLSLTCAVSGYSISSAYAWSWIRQPPGKGLEWVGYVGSSSDYNPSLKSRVTISRDTSKNRIFLNLRSLTAADTAVYYCARDRANNSMDVWGRGVLVTVSS
VL: EIVLTQSPDSLGVSLGERVTINCKSSQSLLYSSNNKNYLAWYQQKPGQAPKLLIYWASTRESGVPNRFSGSGSGTDFTLTISGLQAEDVAVYYCQQYYSTPLTFGQGTKVEIKR

The first test has as its target T1, MARV (Musoke strain) GP. As to the kind of experiment: GP ELISA, purified mAb.
In the case of B1, the binding result is recorded as “no binding”.

In the case of B2, the binding result was “no binding”.

B3: the binding result is given as “no binding”.

The next test deals with T2, EBOV VLP. Description: ELISA. For orientation: In an ELISA, binding on a coated surface is turned into a signal by an enzyme label.
Regarding B4, the EC50 was 0.473 nM. That is a sub-nanomolar value.

In turn, B1 had an EC50 of 0.459 nM.

As for B5, a half-maximal response (EC50) required 0.593 nM.

For B6, the EC50 was found to be 0.66 nM. The EC50 values of the last two molecules are within 1.5-fold of each other.

In turn, B7 displayed an EC50 of 0.513 nM.

Molecule B2 returned an EC50 of 1.29 nM.

The molecule B8 yielded an EC50 of 0.32 nM.

Turning to B9, the EC50 turned out to be 0.367 nM.

With B10, it took 1.03 nM to reach a half-maximal effect (EC50). Against the preceding molecule, the EC50 is about 2.8-fold higher.

In turn, B11 displayed an EC50 of 0.767 nM.

The molecule B3 returned an EC50 of 0.198 nM.

For the molecule B12, the EC50 came to 0.967 nM. Against the preceding molecule, the EC50 is about 4.9-fold higher.

In a further test the target is T3, SUDV VLP. As to the kind of experiment: ELISA.
As for B4, the EC50 was found to be 0.96 nM.

As for B1, the EC50 came to 0.319 nM.

On to B5, for which the EC50 was 0.58 nM.

B6 registered an EC50 of 0.187 nM.

Regarding B7, the EC50 came to 3.2 nM.

B2 displayed an EC50 of 32.9 nM. Against the preceding molecule, the EC50 is about 10-fold higher.

With B8, the EC50 turned out to be 0.373 nM. Compared with the last molecule, the EC50 is about 88-fold lower.

As for B9, the midpoint of the response, the EC50, lay at 0.353 nM.

In turn, B10 registered an EC50 of 1.08 nM.

In the case of B11, the 50% effective concentration (EC50) turned out to be 1.43 nM.

On to B3, for which the response was half-maximal at 0.144 nM (EC50).

In the case of B12, the EC50 came to 5.4 nM.

A further test deals with T4, MARV VLP. Description: ELISA.
In turn, B13 had an EC50 of 0.793 nM.
